Laboratory results published in publication PMC7267771.
Blank lines part the entries; values can stand above or below the substance they belong to.

What was measured:
[1] = target: P. aeruginosa PBP1B (P. aeruginosa PA01); test: SPR; PaPBP1B immobilised on a GLC amine coupling sensorchip (BioRad ProteOn XPR36); analyte in 1:1 serial dilution from 10 μM to 19.5 nM; 25°C; 75 μL/min, 5 min injection; 10 mM Tris/HCl, 150 mM NaCl, 0.05% Triton X-100, pH 7.5; response at equilibrium, non-linear regression assuming one-site saturation
[2] = target: P. aeruginosa PBP1B (P. aeruginosa PA01)
[3] = target: P. aeruginosa CpoB lacking its periplasmic export sequence (residues 22-274) (P. aeruginosa PA01); test: SEC; PaCpoB alone, last step of its purification, procedure as for LpoP
[4] = target: biotin-labeled UB2H domain of P. aeruginosa PBP1B (P. aeruginosa); test: BLI; UB2H-Biot (25 μg/ml) immobilised on streptavidin biosensors (OctetRED96e); LpoP 0 to 6 μM; HBS-T (10 mM Hepes pH 7.5, 150 mM NaCl, 0.02% Tween); 23°C; responses at equilibrium of two series fitted together
Chain of biotin-labeled UB2H domain of P. aeruginosa PBP1B (P. aeruginosa) (main, as listed by the source): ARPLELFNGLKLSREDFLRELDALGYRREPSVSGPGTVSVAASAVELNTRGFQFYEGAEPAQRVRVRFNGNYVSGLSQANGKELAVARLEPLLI

Substance: LpoP lacking its lipoprotein sorting sequence (residues 20-259) (natural protein)
Kd [1]: 4.2 µM
GTase rate of PaPBP1B with and without LpoP (continuous fluorescence assay, 0.5 μM PaPBP1B, 10 μM LpoP, 37°C) [2]: 4.5 fold
transpeptidation products made by PaPBP1B with and without LpoP (endpoint TPase assay with radiolabelled lipid II, 10 μM LpoP, 37°C, 3 h) [2]: 2 fold

stoichiometry N [3]: 3
Substance: P. aeruginosa CpoB lacking its periplasmic export sequence (residues 22-274) (natural protein)

Kd [4]: 0.4 µM
Substance: LpoP (residues 20-259), preparation for NMR and BLI (natural protein)
